In the test the target is T1, purified Mfn2 (human, UniProt O95140 1-757).
T1 sequence (looked up): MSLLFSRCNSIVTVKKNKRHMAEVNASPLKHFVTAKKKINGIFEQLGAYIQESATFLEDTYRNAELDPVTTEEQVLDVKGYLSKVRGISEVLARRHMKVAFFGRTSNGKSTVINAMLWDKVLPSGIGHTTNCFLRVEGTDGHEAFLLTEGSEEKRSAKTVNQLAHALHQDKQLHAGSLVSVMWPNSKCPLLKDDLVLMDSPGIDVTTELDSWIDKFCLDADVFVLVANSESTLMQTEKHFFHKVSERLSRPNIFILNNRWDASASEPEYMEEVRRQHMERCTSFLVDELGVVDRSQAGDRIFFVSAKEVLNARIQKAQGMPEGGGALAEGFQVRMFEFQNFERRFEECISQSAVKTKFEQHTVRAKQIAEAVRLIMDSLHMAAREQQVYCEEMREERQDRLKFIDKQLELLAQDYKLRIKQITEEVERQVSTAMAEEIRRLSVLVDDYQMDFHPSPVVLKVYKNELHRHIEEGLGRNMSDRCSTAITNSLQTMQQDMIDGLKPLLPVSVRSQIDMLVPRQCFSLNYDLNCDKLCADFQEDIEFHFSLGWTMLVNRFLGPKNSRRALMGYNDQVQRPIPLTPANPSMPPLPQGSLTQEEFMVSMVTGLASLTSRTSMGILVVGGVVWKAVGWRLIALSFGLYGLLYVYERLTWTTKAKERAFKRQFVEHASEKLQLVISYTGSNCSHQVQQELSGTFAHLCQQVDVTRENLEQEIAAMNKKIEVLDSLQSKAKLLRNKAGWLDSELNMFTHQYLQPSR
Put plainly: pull-down.

B1: purified and biotinylated TAK1 (enzyme, human, UniProt O43318 1-606, looked up)
chain: MSTASAASSSSSSSAGEMIEAPSQVLNFEEIDYKEIEVEEVVGRGAFGVVCKAKWRAKDVAIKQIESESERKAFIVELRQLSRVNHPNIVKLYGACLNPVCLVMEYAEGGSLYNVLHGAEPLPYYTAAHAMSWCLQCSQGVAYLHSMQPKALIHRDLKPPNLLLVAGGTVLKICDFGTACDIQTHMTNNKGSAAWMAPEVFEGSNYSEKCDVFSWGIILWEVITRRKPFDEIGGPAFRIMWAVHNGTRPPLIKNLPKPIESLMTRCWSKDPSQRPSMEEIVKIMTHLMRYFPGADEPLQYPCQYSDEGQSNSATSTGSFMDIASTNTSNKSDTNMEQVPATNDTIKRLESKLLKNQAKQQSESGRLSLGASRGSSVESLPPTSEGKRMSADMSEIEARIAATTAYSKPKRGHRKTASFGNILDVPEIVISGNGQPRRRSIQDLTVTGTEPGQVSSRSSSPSVRMITTSGPTSEKPTRSHPWTPDDSTDTNGSDNSIPMAYLTLDHQLQPLAPCPNSKESMAVFEQHCKMAQEYMKVQTEIALLLQRKQELVAELDQDEKDQQNTSRLVQEHKKLLDENKSLSTYYQQCKKQLEVIRSQQQKRQGTS
modifications: biotinylated
For the molecule B1, the binding result is given as “binds”.
